Assay results from paper PMC6650547 (mBio, 2019).

Molecular target: T1, His-SUDV-NP(34-367) (Sudan virus (SUDV), strain Boniface, UniProt Q9QP77 34-367)
T1 sequence: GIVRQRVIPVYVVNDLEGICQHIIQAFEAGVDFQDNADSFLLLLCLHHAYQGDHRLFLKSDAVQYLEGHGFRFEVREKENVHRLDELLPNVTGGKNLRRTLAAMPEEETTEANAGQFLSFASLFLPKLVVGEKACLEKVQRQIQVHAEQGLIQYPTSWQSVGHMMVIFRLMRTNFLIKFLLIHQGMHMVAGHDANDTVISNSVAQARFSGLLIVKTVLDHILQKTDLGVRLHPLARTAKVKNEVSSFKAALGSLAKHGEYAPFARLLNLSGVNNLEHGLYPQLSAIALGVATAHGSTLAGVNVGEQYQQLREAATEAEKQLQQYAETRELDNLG
Assay: BLI; […] ([…]), 60 s association, 60 s dissociation; […]; Octet Red
Settings: both partners purified

B1: SUDV VP35 wild-type chaperone domain peptide (residues 1 to 34) (peptide)
peptide: MQQDRTYRHHGPEVSGWFSEQLMTGKIPLTEVFV
  Kd: ~3.86 nM
